Source: the Human Domainome abundance scans (Beltran et al. 2025)

B1: Nucleosome-remodeling factor subunit BPTF, residues 2862 to 2918; numbered along this chain, Q12830 (parent)
chain: TKKDTKLYCICKTPYDESKFYIGCDRCQNWYHGRCVGILQSEAELIDEYVCPQCQST
B2: Cold shock protein CspB, residues 1 to 66; numbered along this chain, P41016 (parent)
chain: MQRGKVKWFNNEKGYGFIEVEGGSDVFVHFTAIQGEGFKTLEEGQEVSFEIVQGNRGPQAANVVKL

Variants of: B1
Experiment: abundance fitness (aPCA) (normalised: wild type 0, dead -1); higher = more abundant; growth selection in yeast, the domain comes from the species named
Details: Homo sapiens

Abundance fitness: each site, then its substitutions
Y8: A 0.065 | I -0.166 | L -0.043 | K 0.065 | C -0.028 | T -0.041 | F -0.037 | W -0.164 | G 0.051 | V -0.081 | R -0.105 | M 0.015 | Q 0.054 | P -0.298 | D 0.072 | S -0.014 | E 0.166
I10: P -0.395 | N -0.446 | R -0.368 | G -0.387 | E -0.129 | F -0.307 | K -0.218 | V -0.218 | C -0.245 | Q -0.472 | D -0.278 | H -0.084 | W -0.398 | M -0.252 | T -0.249 | S -0.387
T1: N 0.018 | D -0.071 | R -0.281 | L -0.256 | I -0.132 | S -0.104 | A -0.54 | W -0.152 | E -0.185 | G -0.147 | M -0.13 | K -0.199 | V -0.177 | P -0.264 | H -0.277
T5: Y -0.016 | W -0.238 | A -0.213 | L -0.092 | K 0.05 | Q -0.052 | F -0.076 | S -0.071 | G -0.155 | M 0.024 | N 0.016 | C 0.002 | V -0.282 | E 0.064 | D 0.028 | I -0.017 | H -0.055
K6: A 0.069 | T 0.008 | V -0.161 | P 0.034 | I -0.08 | D -0.062 | G -0.071 | R -0.086 | Q -0.032 | E -0.042 | H -0.057 | N -0.045 | M -0.013 | F -0.278 | C -0.161 | L -0.085 | S -0.035
D4: M -0.088 | P -0.112 | R -0.446 | T -0.124 | K -0.005 | I -0.179 | S -0.008 | C -0.316 | E -0.005 | Y -0.154 | F -0.226 | H -0.195 | A -0.18 | N -0.087 | L -0.238 | G -0.163 | V -0.215
C9: H -0.838 | I -1.05 | P -0.716 | D -0.827 | G -0.801 | N -0.932 | E -0.971 | T -0.851 | F -0.916 | Q -0.846 | A -0.877 | L -0.815 | V -0.986 | K -0.706 | R -0.879
K3: T 0.013 | Q -0.032 | W -0.629 | A -0.146 | S 0.036 | F -0.041 | E 0.014 | Y -0.273 | M -0.152 | R -0.131 | D -0.097 | L -0.111 | N -0.379 | G -0.148 | H -0.424 | I -0.057 | V -0.009 | C -0.697
L7: K -0.219 | T -0.012 | C -0.058 | I -0.179 | Y -0.022 | H 0.018 | W -0.13 | V -0.076 | D 0.023 | S -0.046 | N 0.037 | R -0.18 | G -0.005 | F -0.089 | A -0.014 | P -0.071

Variants of: B2
Experiment: as above
Details: Bacillus caldolyticus

Abundance fitness, by site and new letter:
Q34: F 0.052
S24: I -0.033
K7: F -0.3
N10: D -0.086
G57: N -0.223
K13: H 0
V6: L -0.158
V26: D -0.529
D25: M -0.153
F9: W -0.092
I18: H -0.812
K39: D -0.148
G35: T -0.084
N55: F 0.046 | A -0.035
Q45: S -0.029 | Y -0.072
I51: M 0.023
S48: W -0.074
